{"source": "patent US20210063414A1", "about": "“METHODS FOR PREVENTING AND/OR TREATING BONE LOSS CONDITIONS BY MODULATING IRISIN” (Dana-Farber Cancer Institute, Inc., priority 2018, published 2021)", "molecules": {"B1": {"name": "irisin: secreted cleaved form of FNDC5; recombinant human/mouse irisin with C-terminal his tag produced in HEK293 cells (protein)", "chain": "DSPSAPVNVTVRHLKANSAVVSWDVLEDEVVIGFAISQQKKDVRMLRFIQEVNTTTRSCALWDLEEDTEYIVHVQAISIQGQSPASEPVLFKTPREAEKMASKNKDEVTMKE", "modifications": "left off: small tags and cut ends", "notes": "secreted cleaved form of FNDC5; recombinant human/mouse irisin with C-terminal his tag produced in HEK293 cells"}}, "assay_in_all_cases": "Crosslinking/co-immunoprecipitation/mass spectrometry (TMT quantitative proteomics) to identify irisin receptors", "format_in_all_cases": "binding", "key": {"[1]": {"biological_target": "T1, MLO-Y4 cell surface proteins (Mus musculus, UniProt P59999)", "T1 construct": "endogenous in cells; host or cells: MLO-Y4", "conditions": "co-precipitated protein Atpc4 (ARPC4_MOUSE)", "protocol": "(§1) MLO-Y4 cells were seeded on 30×150 mm type-I collagen coated dishes as described in cell culture experiment. At 60% cell density, medium was switched to FreeStyle™ 293 Expression medium. After 4 hours incubation, the cells were chilled on ice for 10 minutes, followed by treatment of 10 nM his-tag irisin or his-tag adipsin for 20 minutes. The cells were then incubated with 1.5 mM DTSSP for 30 minutes on ice to do cross-linking, after washing with 15 ml cold PBS twice. The cross-linking was quenched by addition of a final concentration of 20 mM Tris-pH 7.5. The cells were then harvested and homogenized in 1 ml RIPA buffer containing proteaseinhibitor cocktailand phosphatase-inhibitor cocktail. Whole-cell lysates were homogenized by 10 times passages through a 22G needle fitted to a 3 ml syringe. Homogenized samples were rotated gently in cold room for 20 minutes followed by 15,000×g centrifugation for 10 minutes. After addition of a final concentration of 10 mM imidazole, supernatants were incubated with 100 μl Ni-NTA agarose for 1 hour. After centrifugation at 500×g for 1 minute, the supernatants were aspirated and 1 ml cold RIPA buffer containing 10 mM imidazole were added to the agarose. After 10 minutes rotation in cold room, the supernatants were aspirated and 1 ml cold RIPA buffer containing 30 mM imidazole were added to the agarose. After repeating the washing 3 times, 0.8 ml RIPA buffer containing 250 mM imidazole was added and the agarose was gently rotated in a cold room for 20 minutes. After centrifugation at 1000×g for 2 minutes, the supernatants were transferred to 1.5 ml tube and incubated with 100 μl 0.2% sodium deoxycholate and 100 μl 10% trichloroacetic acid in ice for 1 hour. After centrifugation at 12,000×g for 10 minutes at 4° C., the supernatants were removed and 1 ml cold acetone was added to the pellets followed by vortexing for 10 seconds. After one more washing with cold acetone, the pellets were dried at 37° C., and 39 μl PBS and 13 μl 4×NuPAGE LDS were added to the pellets with a final concentration of 5 mM DTT. Solubilized proteins were incubated at 65° C. for 20 minutes followed by incubation with a final concentration of 14 mM iodoacetamide for 45 minutes in the dark. 38 μl samples were loaded to 4-12% gradient SDS-PAGE for separation followed by Coomassie Blue staining. The gels were submitted to quantitative proteomics.\n(§2) For in-gel digestions, gels were stained with Coomassie Blue and were excised into 8 equal segments for control and irisin lanes. Gel pieces were destained and dehydrated with 100% acetonitrile, vacuumed dried, and digested in 25 mM HEPES (pH 8.5) with 500 ng sequencing grade trypsin (Promega) and incubated for an overnight at 37° C. (Shevchenko et al. (1996) Anal. Chem. 68:850-858). Digests were treated with 1% formic acid and purified using C18 Stage-Tips as previously described (Rappsilber et al. (2007) Nat. Protoc. 2:1896-1906). Peptides were eluted with 70% acetonitrile and 1% formic acid, then dried using a speedvac. Isobaric labeling of digested peptides was accomplished using 6-plex tandem mass tag (TMT) reagents (Thermo Fisher Scientific, Rockford, Ill.). Reagents, 5.0 mg, were dissolved in 252 μl acetonitrile (ACN) and 5 μl of the solution was added to the digested peptides dissolved in 25 μl of 200 mM HEPES, pH 8.5. After 1 hour at room temperature, the reaction was quenched by adding 1 μl of 5% hydroxylamine. Labeled peptides were combined and acidified prior to C18 Stage-Tips desalting.\n(§3) All LC-MS/MS experiments were performed on an Orbitrap Fusion™ Lumos mass spectrometer (Thermo Fisher Scientific, San Jose, Calif., USA) coupled with a Proxeon EASY-nLC™ 1200 LC pump (Thermo Fisher Scientific). Peptides were separated on a 100 μm inner diameter microcapillary column packed with 35 cm of Accucore™ C18 resin (1.8 μm, 100 Å, Thermo Fisher Scientific). […]"}, "[2]": {"biological_target": "T2, MLO-Y4 cell surface proteins (Mus musculus, UniProt P48997)", "T2 construct": "endogenous in cells; host or cells: MLO-Y4", "T2 sequence (P48997 1-467)": "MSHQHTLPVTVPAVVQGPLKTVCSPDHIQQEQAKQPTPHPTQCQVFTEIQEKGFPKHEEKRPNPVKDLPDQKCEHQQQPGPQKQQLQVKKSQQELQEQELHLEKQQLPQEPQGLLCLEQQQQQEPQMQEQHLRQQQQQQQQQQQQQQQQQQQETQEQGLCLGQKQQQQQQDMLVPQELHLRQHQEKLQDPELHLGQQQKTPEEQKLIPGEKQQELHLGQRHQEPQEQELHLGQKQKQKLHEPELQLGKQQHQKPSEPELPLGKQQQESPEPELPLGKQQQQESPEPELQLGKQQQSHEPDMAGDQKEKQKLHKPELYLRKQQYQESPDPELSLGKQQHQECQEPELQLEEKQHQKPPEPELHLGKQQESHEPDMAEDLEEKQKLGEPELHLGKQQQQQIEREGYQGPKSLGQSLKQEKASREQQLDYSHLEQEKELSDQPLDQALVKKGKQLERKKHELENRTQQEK", "conditions": "co-precipitated protein Ivl (INVO_MOUSE)", "protocol": "as §1, §2, §3"}, "[3]": {"biological_target": "T3, MLO-Y4 cell surface proteins (Mus musculus, UniProt Q921N7)", "T3 construct": "endogenous in cells; host or cells: MLO-Y4", "T3 sequence (Q921N7 78-253)": "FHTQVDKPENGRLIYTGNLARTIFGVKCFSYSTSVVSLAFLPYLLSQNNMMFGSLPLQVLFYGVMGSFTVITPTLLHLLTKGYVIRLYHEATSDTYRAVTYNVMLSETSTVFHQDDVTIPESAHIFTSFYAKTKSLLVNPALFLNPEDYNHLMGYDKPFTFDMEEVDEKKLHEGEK", "conditions": "co-precipitated protein Tmem70 (TMM70_MOUSE)", "protocol": "as §1, §2, §3"}, "[4]": {"biological_target": "T4, MLO-Y4 cell surface proteins (Mus musculus, UniProt P56567)", "T4 construct": "endogenous in cells; host or cells: MLO-Y4", "T4 sequence (P56567 1-97)": "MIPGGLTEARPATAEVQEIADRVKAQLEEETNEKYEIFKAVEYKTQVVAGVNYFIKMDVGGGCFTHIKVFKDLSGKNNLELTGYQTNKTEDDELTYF", "conditions": "co-precipitated protein Csta (CYTA_MOUSE)", "protocol": "as §1, §2, §3"}, "[5]": {"biological_target": "T5, MLO-Y4 cell surface proteins (Mus musculus, UniProt P63038)", "T5 construct": "endogenous in cells; host or cells: MLO-Y4", "T5 sequence (P63038 27-573)": "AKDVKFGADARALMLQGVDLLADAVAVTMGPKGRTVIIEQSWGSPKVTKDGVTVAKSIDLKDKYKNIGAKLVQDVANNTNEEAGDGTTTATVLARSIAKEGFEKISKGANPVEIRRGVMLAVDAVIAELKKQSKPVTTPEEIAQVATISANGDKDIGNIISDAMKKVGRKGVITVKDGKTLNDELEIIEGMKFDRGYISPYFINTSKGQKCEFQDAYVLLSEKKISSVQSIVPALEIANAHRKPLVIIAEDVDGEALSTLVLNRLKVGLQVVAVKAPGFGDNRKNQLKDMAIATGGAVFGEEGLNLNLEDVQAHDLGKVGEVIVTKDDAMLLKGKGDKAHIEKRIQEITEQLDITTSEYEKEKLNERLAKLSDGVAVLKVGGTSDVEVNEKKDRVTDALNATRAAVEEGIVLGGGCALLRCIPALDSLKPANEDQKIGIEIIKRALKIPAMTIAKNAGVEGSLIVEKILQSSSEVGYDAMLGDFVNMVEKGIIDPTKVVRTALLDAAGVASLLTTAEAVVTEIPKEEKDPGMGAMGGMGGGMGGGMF", "conditions": "co-precipitated protein Hspd1 (CH60_MOUSE)", "protocol": "as §1, §2, §3"}}, "data": [{"molecule": "B1", "values": [{"measurement": "TMT signal-to-noise ratio", "setting": "[1]", "result": 74.075}, {"measurement": "irisin/adipsin TMT signal-to-noise ratio", "setting": "[1]", "result": 0.536}, {"measurement": "TMT signal-to-noise ratio", "setting": "[2]", "result": 13.3857}, {"measurement": "irisin/adipsin TMT signal-to-noise ratio", "setting": "[2]", "result": 0.060}, {"measurement": "TMT signal-to-noise ratio", "setting": "[3]", "result": 49.6598}, {"measurement": "irisin/adipsin TMT signal-to-noise ratio", "setting": "[3]", "result": 0.562}, {"measurement": "TMT signal-to-noise ratio", "setting": "[4]", "result": 2.132}, {"measurement": "irisin/adipsin TMT signal-to-noise ratio", "setting": "[4]", "result": 0.013}, {"measurement": "TMT signal-to-noise ratio", "setting": "[5]", "result": 2002.08}, {"measurement": "irisin/adipsin TMT signal-to-noise ratio", "setting": "[5]", "result": 0.470}]}]}
